Biological target: T1, CD3ε homodimer protein (human, UniProt P07766 23-126, limits assumed)
T1 construct: also called CD3 (CD3ε)
Test: SPR Biacore T200, CD3ε homodimer on chip;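 further: Light-chain single-residue variant antibodies injected over amine-coupled CD3ε homodimer on a CM4 chip at 25 °C, bound amount divided by that of the GLS3000-containing antibody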

T1 sequence (P07766 23-126 limits assumed): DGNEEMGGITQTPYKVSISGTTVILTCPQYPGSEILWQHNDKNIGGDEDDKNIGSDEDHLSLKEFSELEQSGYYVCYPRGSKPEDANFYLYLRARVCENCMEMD

B1: GLS3000 N28V one-arm antibody (antibody, human IgG1, kappa, L234A L235A, N297A, name in Kabat numbering)
heavy: QVQLVESGGGVVQPGRSLRLSCAASGFTFSNAWMHWVRQAPGKGLEWVAQIKAKSNNYATYYAESVKGRFTISRDDSKNSLYLQMNSLKTEDTAVYYCRYVHYGAYYGVDAWGQGTTVTVSSASTKGPSVFPLAPSSKSTSGGTAALGCLVKDYFPEPVTVSWNSGALTSGVHTFPAVLQSSGLYSLSSVVTVPSSSLGTQTYICNVNHKPSNTKVDKKVEPKSCDKTHTCPPCPAPEAAGGPSVFLFPPKPKDTLMISRTPEVTCVVVDVSHEDPEVKFNWYVDGVEVHNAKTKPREEQYASTYRVVSVLTVLHQDWLNGKEYKCKVSNKALPAPIEKTISKAKGQPREPQVYTLPPSRCELTKNQVSLSCAVKGFYPSDIAVEWESNGQPENNYKTTPPVLDSDGSFFLVSKLTVDKSRWQQGNVFSCSVMHEALHNHYTQKSLSLSPDYKDDDDK
chain: EPKSSDKTHTCPPCPAPELLGGPSVFLFPPKPKDTLMISRTPEVTCVVVDVSHEDPEVKFNWYVDGVEVHNAKTKPREEQYNSTYRVVSVLTVLHQDWLNGKEYKCKVSNKALPAPIEKTISKAKGQPREPQVCTLPPSRDELTKNQVSLWCLVKGFYPSDIAVEWESNGQPENNYKTTPPVLDSDGSFFLYSKLTVDKSRWQQGNVFSCSVMHEALHNRYTQKSLSLSP
light: DIVMTQSPLSLPVTPGEPASISCRSSQSLVHSVRNTYLHWYQQKPGQAPRLLIYKVSNRFSGVPDRFSGSGSGTDFTLKISRVEAEDVGVYYCGQGTQVPYTFGQGTKLEIKRTVAAPSVFIFPPSDEQLKSGTASVVCLLNNFYPREAKVQWKVDNALQSGNSQESVTEQDSKDSTYSLSSTLTLSKADYEKHKVYACEVTHQGLSSPVTKSFNRGEC
Q: For B1, which “ratio of amount bound vs unaltered GLS3000” value (“ratio of amount bound” below) is on record?
A: Its value is 0.36.

B2: GLS3000 N28W one-arm antibody (antibody, human IgG1, kappa, L234A L235A, N297A, name in Kabat numbering)
heavy: QVQLVESGGGVVQPGRSLRLSCAASGFTFSNAWMHWVRQAPGKGLEWVAQIKAKSNNYATYYAESVKGRFTISRDDSKNSLYLQMNSLKTEDTAVYYCRYVHYGAYYGVDAWGQGTTVTVSSASTKGPSVFPLAPSSKSTSGGTAALGCLVKDYFPEPVTVSWNSGALTSGVHTFPAVLQSSGLYSLSSVVTVPSSSLGTQTYICNVNHKPSNTKVDKKVEPKSCDKTHTCPPCPAPEAAGGPSVFLFPPKPKDTLMISRTPEVTCVVVDVSHEDPEVKFNWYVDGVEVHNAKTKPREEQYASTYRVVSVLTVLHQDWLNGKEYKCKVSNKALPAPIEKTISKAKGQPREPQVYTLPPSRCELTKNQVSLSCAVKGFYPSDIAVEWESNGQPENNYKTTPPVLDSDGSFFLVSKLTVDKSRWQQGNVFSCSVMHEALHNHYTQKSLSLSPDYKDDDDK
chain: EPKSSDKTHTCPPCPAPELLGGPSVFLFPPKPKDTLMISRTPEVTCVVVDVSHEDPEVKFNWYVDGVEVHNAKTKPREEQYNSTYRVVSVLTVLHQDWLNGKEYKCKVSNKALPAPIEKTISKAKGQPREPQVCTLPPSRDELTKNQVSLWCLVKGFYPSDIAVEWESNGQPENNYKTTPPVLDSDGSFFLYSKLTVDKSRWQQGNVFSCSVMHEALHNRYTQKSLSLSP
light: DIVMTQSPLSLPVTPGEPASISCRSSQSLVHSWRNTYLHWYQQKPGQAPRLLIYKVSNRFSGVPDRFSGSGSGTDFTLKISRVEAEDVGVYYCGQGTQVPYTFGQGTKLEIKRTVAAPSVFIFPPSDEQLKSGTASVVCLLNNFYPREAKVQWKVDNALQSGNSQESVTEQDSKDSTYSLSSTLTLSKADYEKHKVYACEVTHQGLSSPVTKSFNRGEC
Q: Which “ratio of amount bound” value does the source give for B2 here?
A: The value was 0.41.

B3: GLS3000 N28Y one-arm antibody (antibody, human IgG1, kappa, L234A L235A, N297A, name in Kabat numbering)
heavy: QVQLVESGGGVVQPGRSLRLSCAASGFTFSNAWMHWVRQAPGKGLEWVAQIKAKSNNYATYYAESVKGRFTISRDDSKNSLYLQMNSLKTEDTAVYYCRYVHYGAYYGVDAWGQGTTVTVSSASTKGPSVFPLAPSSKSTSGGTAALGCLVKDYFPEPVTVSWNSGALTSGVHTFPAVLQSSGLYSLSSVVTVPSSSLGTQTYICNVNHKPSNTKVDKKVEPKSCDKTHTCPPCPAPEAAGGPSVFLFPPKPKDTLMISRTPEVTCVVVDVSHEDPEVKFNWYVDGVEVHNAKTKPREEQYASTYRVVSVLTVLHQDWLNGKEYKCKVSNKALPAPIEKTISKAKGQPREPQVYTLPPSRCELTKNQVSLSCAVKGFYPSDIAVEWESNGQPENNYKTTPPVLDSDGSFFLVSKLTVDKSRWQQGNVFSCSVMHEALHNHYTQKSLSLSPDYKDDDDK
chain: EPKSSDKTHTCPPCPAPELLGGPSVFLFPPKPKDTLMISRTPEVTCVVVDVSHEDPEVKFNWYVDGVEVHNAKTKPREEQYNSTYRVVSVLTVLHQDWLNGKEYKCKVSNKALPAPIEKTISKAKGQPREPQVCTLPPSRDELTKNQVSLWCLVKGFYPSDIAVEWESNGQPENNYKTTPPVLDSDGSFFLYSKLTVDKSRWQQGNVFSCSVMHEALHNRYTQKSLSLSP
light: DIVMTQSPLSLPVTPGEPASISCRSSQSLVHSYRNTYLHWYQQKPGQAPRLLIYKVSNRFSGVPDRFSGSGSGTDFTLKISRVEAEDVGVYYCGQGTQVPYTFGQGTKLEIKRTVAAPSVFIFPPSDEQLKSGTASVVCLLNNFYPREAKVQWKVDNALQSGNSQESVTEQDSKDSTYSLSSTLTLSKADYEKHKVYACEVTHQGLSSPVTKSFNRGEC
Q: With B3 as the binder, how does the “ratio of amount bound” value read?
A: Its value is 0.26.

B4: GLS3000 N30A one-arm antibody (antibody, human IgG1, kappa, L234A L235A, N297A, name in Kabat numbering)
heavy: QVQLVESGGGVVQPGRSLRLSCAASGFTFSNAWMHWVRQAPGKGLEWVAQIKAKSNNYATYYAESVKGRFTISRDDSKNSLYLQMNSLKTEDTAVYYCRYVHYGAYYGVDAWGQGTTVTVSSASTKGPSVFPLAPSSKSTSGGTAALGCLVKDYFPEPVTVSWNSGALTSGVHTFPAVLQSSGLYSLSSVVTVPSSSLGTQTYICNVNHKPSNTKVDKKVEPKSCDKTHTCPPCPAPEAAGGPSVFLFPPKPKDTLMISRTPEVTCVVVDVSHEDPEVKFNWYVDGVEVHNAKTKPREEQYASTYRVVSVLTVLHQDWLNGKEYKCKVSNKALPAPIEKTISKAKGQPREPQVYTLPPSRCELTKNQVSLSCAVKGFYPSDIAVEWESNGQPENNYKTTPPVLDSDGSFFLVSKLTVDKSRWQQGNVFSCSVMHEALHNHYTQKSLSLSPDYKDDDDK
chain: EPKSSDKTHTCPPCPAPELLGGPSVFLFPPKPKDTLMISRTPEVTCVVVDVSHEDPEVKFNWYVDGVEVHNAKTKPREEQYNSTYRVVSVLTVLHQDWLNGKEYKCKVSNKALPAPIEKTISKAKGQPREPQVCTLPPSRDELTKNQVSLWCLVKGFYPSDIAVEWESNGQPENNYKTTPPVLDSDGSFFLYSKLTVDKSRWQQGNVFSCSVMHEALHNRYTQKSLSLSP
light: DIVMTQSPLSLPVTPGEPASISCRSSQSLVHSNRATYLHWYQQKPGQAPRLLIYKVSNRFSGVPDRFSGSGSGTDFTLKISRVEAEDVGVYYCGQGTQVPYTFGQGTKLEIKRTVAAPSVFIFPPSDEQLKSGTASVVCLLNNFYPREAKVQWKVDNALQSGNSQESVTEQDSKDSTYSLSSTLTLSKADYEKHKVYACEVTHQGLSSPVTKSFNRGEC
Q: With B4 as the binder, how does the “ratio of amount bound” value read?
A: Its value is 0.5.

B5: GLS3000 N30D one-arm antibody (antibody, human IgG1, kappa, L234A L235A, N297A, name in Kabat numbering)
heavy: QVQLVESGGGVVQPGRSLRLSCAASGFTFSNAWMHWVRQAPGKGLEWVAQIKAKSNNYATYYAESVKGRFTISRDDSKNSLYLQMNSLKTEDTAVYYCRYVHYGAYYGVDAWGQGTTVTVSSASTKGPSVFPLAPSSKSTSGGTAALGCLVKDYFPEPVTVSWNSGALTSGVHTFPAVLQSSGLYSLSSVVTVPSSSLGTQTYICNVNHKPSNTKVDKKVEPKSCDKTHTCPPCPAPEAAGGPSVFLFPPKPKDTLMISRTPEVTCVVVDVSHEDPEVKFNWYVDGVEVHNAKTKPREEQYASTYRVVSVLTVLHQDWLNGKEYKCKVSNKALPAPIEKTISKAKGQPREPQVYTLPPSRCELTKNQVSLSCAVKGFYPSDIAVEWESNGQPENNYKTTPPVLDSDGSFFLVSKLTVDKSRWQQGNVFSCSVMHEALHNHYTQKSLSLSPDYKDDDDK
chain: EPKSSDKTHTCPPCPAPELLGGPSVFLFPPKPKDTLMISRTPEVTCVVVDVSHEDPEVKFNWYVDGVEVHNAKTKPREEQYNSTYRVVSVLTVLHQDWLNGKEYKCKVSNKALPAPIEKTISKAKGQPREPQVCTLPPSRDELTKNQVSLWCLVKGFYPSDIAVEWESNGQPENNYKTTPPVLDSDGSFFLYSKLTVDKSRWQQGNVFSCSVMHEALHNRYTQKSLSLSP
light: DIVMTQSPLSLPVTPGEPASISCRSSQSLVHSNRDTYLHWYQQKPGQAPRLLIYKVSNRFSGVPDRFSGSGSGTDFTLKISRVEAEDVGVYYCGQGTQVPYTFGQGTKLEIKRTVAAPSVFIFPPSDEQLKSGTASVVCLLNNFYPREAKVQWKVDNALQSGNSQESVTEQDSKDSTYSLSSTLTLSKADYEKHKVYACEVTHQGLSSPVTKSFNRGEC
Q: Which “ratio of amount bound” value does the source give for B5 here?
A: The value was 0.34.

B6: GLS3000 N30E one-arm antibody (antibody, human IgG1, kappa, L234A L235A, N297A, name in Kabat numbering)
heavy: QVQLVESGGGVVQPGRSLRLSCAASGFTFSNAWMHWVRQAPGKGLEWVAQIKAKSNNYATYYAESVKGRFTISRDDSKNSLYLQMNSLKTEDTAVYYCRYVHYGAYYGVDAWGQGTTVTVSSASTKGPSVFPLAPSSKSTSGGTAALGCLVKDYFPEPVTVSWNSGALTSGVHTFPAVLQSSGLYSLSSVVTVPSSSLGTQTYICNVNHKPSNTKVDKKVEPKSCDKTHTCPPCPAPEAAGGPSVFLFPPKPKDTLMISRTPEVTCVVVDVSHEDPEVKFNWYVDGVEVHNAKTKPREEQYASTYRVVSVLTVLHQDWLNGKEYKCKVSNKALPAPIEKTISKAKGQPREPQVYTLPPSRCELTKNQVSLSCAVKGFYPSDIAVEWESNGQPENNYKTTPPVLDSDGSFFLVSKLTVDKSRWQQGNVFSCSVMHEALHNHYTQKSLSLSPDYKDDDDK
chain: EPKSSDKTHTCPPCPAPELLGGPSVFLFPPKPKDTLMISRTPEVTCVVVDVSHEDPEVKFNWYVDGVEVHNAKTKPREEQYNSTYRVVSVLTVLHQDWLNGKEYKCKVSNKALPAPIEKTISKAKGQPREPQVCTLPPSRDELTKNQVSLWCLVKGFYPSDIAVEWESNGQPENNYKTTPPVLDSDGSFFLYSKLTVDKSRWQQGNVFSCSVMHEALHNRYTQKSLSLSP
light: DIVMTQSPLSLPVTPGEPASISCRSSQSLVHSNRETYLHWYQQKPGQAPRLLIYKVSNRFSGVPDRFSGSGSGTDFTLKISRVEAEDVGVYYCGQGTQVPYTFGQGTKLEIKRTVAAPSVFIFPPSDEQLKSGTASVVCLLNNFYPREAKVQWKVDNALQSGNSQESVTEQDSKDSTYSLSSTLTLSKADYEKHKVYACEVTHQGLSSPVTKSFNRGEC
Q: B6 was tested. Which “ratio of amount bound” value did it give?
A: Its value is 0.44.
